# Measurements reported in patent US20110118131A1 (published 2011).
# Where a chain is given by its changes, count along the chain named. Numbers in names are those of the source.
# T1: Ep-CAM (UniProt P16422 24-265, limits assumed)
# T1 construct: Antigen of the Biacore analysis of ING-1 variants
# T1 sequence (looked up): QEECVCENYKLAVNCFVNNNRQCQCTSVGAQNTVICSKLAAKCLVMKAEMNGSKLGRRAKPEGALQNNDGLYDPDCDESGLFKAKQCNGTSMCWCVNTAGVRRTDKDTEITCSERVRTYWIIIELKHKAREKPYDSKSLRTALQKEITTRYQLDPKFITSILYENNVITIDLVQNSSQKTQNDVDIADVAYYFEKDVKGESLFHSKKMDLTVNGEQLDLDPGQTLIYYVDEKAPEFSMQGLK
# B1: ING-1 heavy chain D104F (Fab, V domains shown)
# VH: QIQLVQSGPELKKPGETVKISCKASGYTFTKYGMNWVKQAPGKGLKWMGWINTYTEEPTYGDDFKGRFAFSLETSASTANLQINNLKSEDTATYFCARFGSAVFYWGQGTSVTVSS
# VL: DIVMTQAAFSNPVTLGTSGSISCRSSKSLLHSNGITYLYWYLQKPGQSPQLLIYQMSNLASGVPDRFSSSGSGTDFTLRISRVEAEDVGVYYCAQNLELPRTFGGGTKLEMKR
# B2: ING-1 heavy chain D104Y (Fab, V domains shown)
# VH: B1 VH with F104Y
# VL: B1 VL
# B3: ING-1 heavy chain D104H (Fab, V domains shown)
# VH: B1 VH with F104H
# VL: B1 VL
# B4: ING-1 heavy chain G33E (Fab, V domains shown)
# VH: B1 VH with G33E, F104D
# VL: B1 VL
# B5: ING-1 heavy chain D104W (Fab, V domains shown)
# VH: B1 VH with F104W
# VL: B1 VL
# B6: ING-1 heavy chain G33D (Fab, V domains shown)
# VH: B1 VH with G33D, F104D
# VL: B1 VL
# B7: ING-1 heavy chain D104R (Fab, V domains shown)
# VH: B1 VH with F104R
# VL: B1 VL
# B8: ING-1 heavy chain G33H (Fab, V domains shown)
# VH: B1 VH with G33H, F104D
# VL: B1 VL
# B9: ING-1 heavy chain D104Q (Fab, V domains shown)
# VH: B1 VH with F104Q
# VL: B1 VL
# B10: ING-1 heavy chain D104K (Fab, V domains shown)
# VH: B1 VH with F104K
# VL: B1 VL
# B11: ING-1 heavy chain E57Q (Fab, V domains shown)
# VH: B1 VH with E57Q, F104D
# VL: B1 VL
# B12: XPA23 heavy chain T58G (Fab, V domains shown)
# VH: EVQLLESGGGLVQPGGSLRLSCAASGFTFSKYFMFWVRQAPGKGLEWVSVISPSGGMGRYADSVKGRFTISRDNSKNTLYLQMNSLRAEDTAVYYCARVGYGGNSDYWGQGTLVTVSS
# VL: DIQMTQSPSSVSASVGDRLTIICRASQDINRWLAWYQQTPGNAPKLLIHSATSLQSGVPSRFSGSGSGTDFTLTINSLQPEDFATYYCQQADSFPLTFGGGTKVEIK
# notes: Fab, periplasmic extract; also called C5A T58G
# B13: XPA23 heavy chain V50I (Fab, V domains shown)
# VH: B12 VH with V50I, G58T
# VL: B12 VL
# notes: Fab, periplasmic extract; also called C5A V50I
# B14: XPA23 heavy chain V50G (Fab, V domains shown)
# VH: B12 VH with V50G, G58T
# VL: B12 VL
# notes: Fab, periplasmic extract; also called C5A V50G
# B15: XPA23 heavy chain V50T (Fab, V domains shown)
# VH: B12 VH with V50T, G58T
# VL: B12 VL
# notes: Fab, periplasmic extract; also called C5A V50T
# B16: XPA23 heavy chain T58I (Fab, V domains shown)
# VH: B12 VH with G58I
# VL: B12 VL
# notes: Fab, periplasmic extract; also called C5A T58I
# B17: XPA23 heavy chain Y101V (Fab, V domains shown)
# VH: B12 VH with G58T, Y101V
# VL: B12 VL
# notes: Fab, periplasmic extract; also called C5A Y101V
# B18: XPA23 heavy chain Y32G (Fab, V domains shown)
# VH: B12 VH with Y32G, G58T
# VL: B12 VL
# notes: Fab, periplasmic extract; also called C5A Y32G
# B19: XPA23 heavy chain Y32L (Fab, V domains shown)
# VH: B12 VH with Y32L, G58T
# VL: B12 VL
# notes: Fab, periplasmic extract; also called C5A Y32L
# B20: XPA23 heavy chain Y32P (Fab, V domains shown)
# VH: B12 VH with Y32P, G58T
# VL: B12 VL
# notes: Fab, periplasmic extract; also called C5A Y32P
# B21: XPA23 heavy chain Y107V (Fab, V domains shown)
# VH: B12 VH with G58T, Y107V
# VL: B12 VL
# notes: Fab, periplasmic extract; also called C5A Y107V
# B22: XPA23 heavy chain Y107P (Fab, V domains shown)
# VH: B12 VH with G58T, Y107P
# VL: B12 VL
# notes: Fab, periplasmic extract; also called C5A Y107P
# B23: XPA23 heavy chain Y101T (Fab, V domains shown)
# VH: B12 VH with G58T, Y101T
# VL: B12 VL
# notes: Fab, periplasmic extract; also called C5A Y101T
# B24: XPA23 heavy chain Y101L (Fab, V domains shown)
# VH: B12 VH with G58T, Y101L
# VL: B12 VL
# notes: Fab, periplasmic extract; also called C5A Y101L
# B25: XPA23 heavy chain V99T (Fab, V domains shown)
# VH: B12 VH with G58T, V99T
# VL: B12 VL
# notes: Fab, periplasmic extract; also called C5A V99T
# B26: XPA23 heavy chain V50L (Fab, V domains shown)
# VH: B12 VH with V50L, G58T
# VL: B12 VL
# notes: Fab, periplasmic extract; also called C5A V50L
# B27: XPA23 heavy chain T58L (Fab, V domains shown)
# VH: B12 VH with G58L
# VL: B12 VL
# notes: Fab, periplasmic extract; also called C5A T58L
# B28: XPA23 heavy chain Y101A (Fab, V domains shown)
# VH: B12 VH with G58T, Y101A
# VL: B12 VL
# notes: Fab, periplasmic extract; also called C5A Y101A
# B29: XPA23 heavy chain T58V (Fab, V domains shown)
# VH: B12 VH with G58V
# VL: B12 VL
# notes: Fab, periplasmic extract; also called C5A T58V
# B30: XPA23 heavy chain Y32V (Fab, V domains shown)
# VH: B12 VH with Y32V, G58T
# VL: B12 VL
# notes: Fab, periplasmic extract; also called C5A Y32V
# B31: XPA23 heavy chain Y101P (Fab, V domains shown)
# VH: B12 VH with G58T, Y101P
# VL: B12 VL
# notes: Fab, periplasmic extract; also called C5A Y101P
# B32: XPA23 heavy chain V50A (Fab, V domains shown)
# VH: B12 VH with V50A, G58T
# VL: B12 VL
# notes: Fab, periplasmic extract; also called C5A V50A
# B33: XPA23 heavy chain Y107A (Fab, V domains shown)
# VH: B12 VH with G58T, Y107A
# VL: B12 VL
# notes: Fab, periplasmic extract; also called C5A Y107A
# B34: XPA23 heavy chain Y107L (Fab, V domains shown)
# VH: B12 VH with G58T, Y107L
# VL: B12 VL
# notes: Fab, periplasmic extract; also called C5A Y107L
# B35: XPA23 heavy chain Y107T (Fab, V domains shown)
# VH: B12 VH with G58T, Y107T
# VL: B12 VL
# notes: Fab, periplasmic extract; also called C5A Y107T
# B36: XPA23 heavy chain V99A (Fab, V domains shown)
# VH: B12 VH with G58T, V99A
# VL: B12 VL
# notes: Fab, periplasmic extract; also called C5A V99A
# B37: XPA23 heavy chain Y101I (Fab, V domains shown)
# VH: B12 VH with G58T, Y101I
# VL: B12 VL
# notes: Fab, periplasmic extract; also called C5A Y101I
# B38: XPA23 heavy chain Y107G (Fab, V domains shown)
# VH: B12 VH with G58T, Y107G
# VL: B12 VL
# notes: Fab, periplasmic extract; also called C5A Y107G
# B39: XPA23 heavy chain Y32T (Fab, V domains shown)
# VH: B12 VH with Y32T, G58T
# VL: B12 VL
# notes: Fab, periplasmic extract; also called C5A Y32T
# B40: XPA23 heavy chain T58P (Fab, V domains shown)
# VH: B12 VH with G58P
# VL: B12 VL
# notes: Fab, periplasmic extract; also called C5A T58P
# B41: XPA23 heavy chain Y107I (Fab, V domains shown)
# VH: B12 VH with G58T, Y107I
# VL: B12 VL
# notes: Fab, periplasmic extract; also called C5A Y107I
# Biological target: T1, Ep-CAM
# Assay: Biacore, Fab periplasmic extract
binding result,fold difference in affinity vs original [fold],Binder
no binding,,B1
no binding,,B2
no binding,,B3
no binding,,B4
no binding,,B5
no binding,,B6
no binding,,B7
,0.02,B8
no binding,,B9
no binding,,B10
no binding,,B11

# Biological target: T2, IL-1β (UniProt P01584 117-269)
# T2 construct: Antigen of XPA23
# Assay: Biacore, Fab periplasmic extract
row,fold difference in affinity against the original [fold],Binder
1,0.95,B12
2,0.1,B13
3,0.03,B14
4,0.03,B15
5,0.95,B16
6,0.09,B17
7,1,B18
8,0.75,B19
9,0.68,B20
10,0.93,B21
11,0.04,B22
12,0.06,B23
13,1.91,B24
14,0.1,B25
15,0.09,B26
16,0.95,B27
17,0.04,B28
18,0.99,B29
19,1.07,B30
20,0.04,B31
21,0.09,B32
22,0.83,B33
23,0.86,B34
24,0.83,B35
25,0.03,B36
26,0.83,B37
27,0.1,B38
28,0.8,B39
29,1.81,B40
30,0.96,B41
